This experiment concerns the target T1, human TIGIT fused to Fc (human, UniProt Q495A1 22-141).
T1 construct: Called a dimeric form of TIGIT; also called human TIGIT-Fc; human dimeric TIGIT-Fc; not shown: Fc
T1 sequence: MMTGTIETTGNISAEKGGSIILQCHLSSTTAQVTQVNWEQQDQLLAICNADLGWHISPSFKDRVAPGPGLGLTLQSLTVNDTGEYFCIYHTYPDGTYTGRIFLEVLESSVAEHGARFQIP
Kind of experiment: SPR, human TIGIT-Fc captured on CM5 chip, BA002 Fab in solution, 1:1 model. The method, then:
Briefly, surface plasmon resonance experiments were performed using a Biacore T200 instrument, and the association rate (Kₐ), dissociation rate (Kd), and dissociation constant (KD) were calculated from each experiment using a 1:1 binding model with Biacore T200 Evaluation Software.
In a similar experiment measuring binding of a monovalent form of BA002 to human TIGIT-Fe, human TIGIT-Fc was captured on flow-cell 2 of a CM5 chip, keeping flow-cell 1 as reference, at a flow rate of 5 μL/min. […] The higher calculated dissociation rate between human TIGIT-Fc and BA002 Fab, relative to the calculated dissociation rate between human TIGIT-Fc and full-length BA002 described above, is consistent with the presence of an avidity effect with the bivalent form of BA002.
On the technique in general: Surface plasmon resonance follows binding to a sensor surface in real time, without labels.

B1: BA002 in Fab format (Fab, V domains shown)
VH: EVQLVQSGAEVEKPGASVKVSCKASGYTFASYGISWVRQAPGQGLEWMGGITPFFNRVDVAEKFQGRVTITADTSTNTVYIELSSLTSEDTAVYYCARDLRRGGVGDAFDIWGRGTLVTVSS
VL: QSALTQPRSVSGSPGQSVTISCTGTSSDVGSHNYVSWYQQHPGKAPQLMIYEVSYRPSEISNRFSGSKSGNTASLTISGLQPEDEADYYCSSYTPSSATVFGAGTKLTVLG
modifications: chain 1 pos 1: glutamate or pyroglutamate (from Glu), written E; chain 2 pos 1: glutamine or pyroglutamate (from Gln), written Q
notes: also called BA002 Fab; monovalent form of BA002
Broadly, the Kd is a measure of binding affinity in units of concentration. A higher Kd goes with a looser complex. A word on the koff: it is a measure of how fast the partners let go of each other. The low end stands for a long-lived complex, the high end for a short-lived complex. For orientation: kon means a measure of how fast the partners come together. In the case of B1, the Kd was 6.8 nM, the off-rate constant (koff) turned out to be 0.019 s⁻¹ and the on-rate constant (kon) was 2.8e+06 M⁻¹ s⁻¹.

Source of the values: patent US20240141047A1 (AGENUS, published 2024).
